For experiment [1], the target named is human NPR1 on HEK293/hNPR1 cells (human) (UniProt P16066).
Experiment [2] has the same target. This is another data set of the same source.
Experiment [3] shares this target. The source holds these as a separate data set.
For experiment [4] the target is unchanged. The source holds these as a separate data set.

Where two headings read alike, the source gives them in different places.

human NPR1 on HEK293/hNPR1 cells (human), sequence (P16066 33-1061): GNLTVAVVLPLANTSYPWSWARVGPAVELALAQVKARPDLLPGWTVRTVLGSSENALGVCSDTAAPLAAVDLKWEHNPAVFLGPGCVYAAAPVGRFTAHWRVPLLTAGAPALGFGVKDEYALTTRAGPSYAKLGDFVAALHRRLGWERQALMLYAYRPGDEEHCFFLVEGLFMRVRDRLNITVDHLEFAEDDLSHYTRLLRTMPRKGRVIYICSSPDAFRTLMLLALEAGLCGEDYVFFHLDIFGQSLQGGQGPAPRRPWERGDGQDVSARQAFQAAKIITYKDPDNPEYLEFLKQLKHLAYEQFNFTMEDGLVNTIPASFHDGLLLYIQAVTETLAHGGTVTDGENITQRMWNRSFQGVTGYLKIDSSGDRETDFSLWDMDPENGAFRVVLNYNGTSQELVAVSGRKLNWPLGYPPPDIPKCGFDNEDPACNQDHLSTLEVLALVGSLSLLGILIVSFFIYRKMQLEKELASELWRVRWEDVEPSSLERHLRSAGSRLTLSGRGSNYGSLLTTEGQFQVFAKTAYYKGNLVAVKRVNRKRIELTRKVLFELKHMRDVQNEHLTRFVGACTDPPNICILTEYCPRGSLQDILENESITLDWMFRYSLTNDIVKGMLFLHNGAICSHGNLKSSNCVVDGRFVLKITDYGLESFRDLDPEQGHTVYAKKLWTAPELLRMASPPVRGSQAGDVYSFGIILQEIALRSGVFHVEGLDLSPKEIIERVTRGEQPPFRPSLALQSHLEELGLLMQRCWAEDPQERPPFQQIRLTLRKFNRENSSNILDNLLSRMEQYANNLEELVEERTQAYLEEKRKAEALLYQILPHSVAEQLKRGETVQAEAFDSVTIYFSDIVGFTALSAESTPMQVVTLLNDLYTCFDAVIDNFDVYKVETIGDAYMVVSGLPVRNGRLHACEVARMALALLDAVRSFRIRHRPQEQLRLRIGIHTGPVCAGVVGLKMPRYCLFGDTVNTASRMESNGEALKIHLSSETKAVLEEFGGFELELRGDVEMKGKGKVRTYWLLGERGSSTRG

B1: atrial natriuretic peptide (ANP) (ligand, UniProt P01160 124-151, looked up)
peptide: SLRRSSCFGGRMDRIGAQSGLGCNSFRY
For the molecule B1, in experiment [1], the EC50 (read off the curve); cGMP accumulation, HEK293/hNPR1 cells, ANP after pre-treatment with 50 nM REGN7541 came out at 0.2 nM; the EC50 (read off the curve); cGMP accumulation, HEK293/hNPR1 cells, ANP after pre-treatment with 150 nM REGN7541 came to 0.8 nM; the EC50 (read off the curve); cGMP accumulation, HEK293/hNPR1 cells, ANP alone (dilution buffer) came to 0.07 nM. Besides, in experiment [2], the EC50 (read off the curve); cGMP accumulation, HEK293/hNPR1 cells, ANP after pre-treatment with 50 nM REGN7548 is 0.7 nM and the EC50 (read off the curve); cGMP accumulation, HEK293/hNPR1 cells, ANP alone (dilution buffer) was 0.09 nM. Besides, in experiment [3], the EC50 (read off the curve); cGMP accumulation, HEK293/hNPR1 cells, ANP after pre-treatment with 50 nM H4H22034N is 0.6 nM; the EC50 (read off the curve); cGMP accumulation, HEK293/hNPR1 cells, ANP after pre-treatment with 150 nM H4H22034N worked out at 0.6 nM; the EC50 (read off the curve); cGMP accumulation, HEK293/hNPR1 cells, ANP after pre-treatment with 450 nM H4H22034N was 0.6 nM. For the same molecule, in experiment [4], the EC50 (read off the curve); cGMP accumulation, HEK293/hNPR1 cells, ANP after pre-treatment with 50 nM REGN7544 amounted to 0.3 nM; the EC50 (read off the curve); cGMP accumulation, HEK293/hNPR1 cells, ANP after pre-treatment with 150 nM REGN7544 was 0.8 nM; the EC50 (read off the curve); cGMP accumulation, HEK293/hNPR1 cells, ANP after pre-treatment with 450 nM REGN7544 was 40 nM; the EC50 (read off the curve); cGMP accumulation, HEK293/hNPR1 cells, ANP alone (dilution buffer) amounted to 0.1 nM.

These data come from patent US20230250170A1.
